Data reported in patent US20240368295A1 (SUTRO BIOPHARMA, published 2024).

T1: BCMA on BCMA-positive NCI-H929, ARP-1 and U266B1 cells (human, UniProt Q02223 1-184)
T1 construct: they are human cell lines; also called B-cell maturation antigen; TNFRSF17
T1 sequence: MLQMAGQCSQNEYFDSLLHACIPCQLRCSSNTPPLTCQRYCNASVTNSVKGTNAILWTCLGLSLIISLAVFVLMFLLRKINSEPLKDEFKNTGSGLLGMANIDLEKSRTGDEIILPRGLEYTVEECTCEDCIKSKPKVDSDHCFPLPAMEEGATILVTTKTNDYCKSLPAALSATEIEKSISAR

T2: human BCMA-Fc (human, UniProt Q02223 5-51, limits assumed)
T2 construct: Bought from R&D Systems; also called huBCMA-Fc; BCMA-Fc (R&D Systems)
T2 chain (looked up): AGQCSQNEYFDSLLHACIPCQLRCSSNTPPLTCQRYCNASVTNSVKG


Legend:
[1] = biological target: T1, BCMA on BCMA-positive NCI-H929, ARP-1 …; assay: FACS, NCI-H929 cells
Experimental: (§1) Variants for which sufficient protein was purified in secondary screening were tested in a fluorescence-activated cell sorting (FACS) cell-binding assay. […] 6-12 point dilutions of anti-BCMA variants starting from concentrations of about 100-200 nM antibody were dispensed into each well using a BioMekFX (Beckman Coulter). Cells were then incubated on ice for 1 hr, washed with FACS buffer and incubated for 1 hr on ice with […] FACS buffer containing […] Alexa647-conjugated Goat Anti-Human IgG dispensed using BioMekFX (Beckman Coulter). Cells were then washed 2× with FACS buffer and fixed for 10 minutes in […] PBS with 2% PFA prior to fluorescence detection. Samples were acquired using a Beckton Dickinson LSRII FACS. Geometric Mean Fluorescence Intensity of BCMA antibody binding was analyzed using FlowJo® software (Trec Star, Inc.).

[2] = biological target: T3, rat BCMA on 293T-ratBCMA cells (rat); assay: FACS, 293T-ratBCMA cells
T3 construct: whole, on cells

[3] = biological target: T1, BCMA on BCMA-positive NCI-H929, ARP-1 …; assay: cell-based or functional assay
human BCMA-Fc = biological target: T2, human BCMA-Fc; assay: SPR (Biacore), captured antibody
[4] = biological target: cynomolgus BCMA on 293T-cynoBCMA cells (cynomolgus, UniProt Q02223 1-184 (human entry)); assay: FACS, 293T-cynoBCMA cells
Experimental: as §1

Sequence of cynomolgus BCMA on 293T-cynoBCMA cells (Q02223 other isoform, or with tags, fused parts or gaps): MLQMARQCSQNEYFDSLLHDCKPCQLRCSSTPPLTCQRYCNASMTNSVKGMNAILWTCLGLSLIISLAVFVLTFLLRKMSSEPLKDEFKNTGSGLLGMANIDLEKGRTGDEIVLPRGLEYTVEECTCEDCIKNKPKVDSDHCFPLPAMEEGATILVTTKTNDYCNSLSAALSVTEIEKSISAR

Binder | Bmax (MFI) [1] [MFI] | Bmax (MFI) [2] [MFI] | ARP-1, SC239-conjugated 2° antibody cell killing, EC50 [3] [nM] | ARP-1, SC239-conjugated 2° antibody cell killing, Span [3] [%] | U266B1, SC239-conjugated 2° antibody cell killing, EC50 [3] [nM] | U266B1, SC239-conjugated 2° antibody cell killing, Span [3] [%] | binding result (human BCMA-Fc) | Bmax (MFI) [4] [MFI]
10F4 (antibody, V domains shown, chicken HybriFree-derived antibody; also called Antibody 37) VH: AVTLDESGGGLQTPGGALSLVCKASGFTFSGYNMGWVRQAPGKGLEYVAGITYGTGSYTAYGAAVKGRATISRDNGQSTLRLQLNNLRAEDTATYYCARGGGLNSYGCSGANIDAWGHGTEVIVSS VL: ALTQPSSVSANLGGTVKITCSGGGNYFGSYYYGWYQQKAPGSAPVTVIYNNNNRPSDIPSRFSGSTSGSTSTLTISGVRAEDEAVYFCGGFDSSTDAIFGAGTTLTVL | 18700 | 410 | 1 | 87 | 0.36 | 81 | no binding (tested: antigen 1-100 nM) | 12800
9A5 (antibody, V domains shown, chicken HybriFree-derived antibody; also called Antibody 42) VH: AVTLDESGGGLQTPGGAVSLVCKASGFSISDYGMGWMRQAPGKGLQYVARIDHDGRYTDYGAVVKGRATISRDNGQSTVRLQLNNLRAEDTGTYYCTRGGGAASIDTWGHGTEVIVSS VL: ALTQPSSVSANPGETVKITCSGGGNYVGGYYYGWYQQKAPGSALVTLIYNNNNRPSNIPSRFSGSTSGSTSTLTITGVRAEDEAVYFCGSFDSSTDAIFGAGTTLTVL | 19700 | 2780 | 0.7 | 93 | 0.29 | 84 | – | 18200
